The labels stand for the following.
B5: SinR (natural protein, B. subtilis, UniProt P06533 1-111, looked up)
chain: MIGQRIKQYRKEKGYSLSELAEKAGVAKSYLSSIERNLQTNPSIQFLEKVSAVLDVSVHTLLDEKHETEYDGQLDSEWEKLVRDAMTSGVSKKQFREFLDYQKWRKSQKEE
notes: After cleavage with human rhinovirus 3C protease a residual N-terminal Gly-Pro-Ala is expected to remain; Tetramer by SEC-MALLS; also called intact SinR; full-length SinR; not shown: His6, N-terminal, cleaved

Data set [1] deals with T1, SinR (Bacillus subtilis, UniProt P06533 1-111).
T1 sequence: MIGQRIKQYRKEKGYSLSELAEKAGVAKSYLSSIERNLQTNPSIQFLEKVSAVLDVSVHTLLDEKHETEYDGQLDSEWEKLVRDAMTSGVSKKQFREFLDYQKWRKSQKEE
The data set can be described thus: fluorescence anisotropy; FA: 10 mM Hepes pH 8.0, 100 mM NaCl, 1 mM DTT, 1 mM EDTA, 5 nM HEX-DNA, 25 C; SPR: 10 mM Hepes pH 8.0, 150 mM NaCl, 3 mM EDTA, 0.05% P20. The note with it: protein: recombinant; tags: N-terminal Gly-Pro-Ala left after 3C cleavage of His6 tag; chain copies: 4; label: 5' HEX on one strand; 22 bp. (Fluorescence polarisation rises when a labelled molecule tumbles more slowly, as on binding a larger partner.)

Data set [2] deals with the molecule itself. Description: SEC-MALS; SEC-MALLS on Superdex 75 HR 10/30; 25 mM Tris pH 8.5, 200 mM NaCl, 0.5 mM EDTA; 100 µl samples of 1 mg/ml protein or an equimolar mixture of SinR and SinI. For orientation: In gel filtration, larger molecules generally elute earlier.
For data set [3], the target named is B5. The data set is described as above. The note with it: both partners purified.

B1: single-site SinRBM duplex (dsDNA)
DNA 1: AATTTTTCGTTCTTTATAAAAT
DNA 2: ATTTTATAAAGAACGAAAAATT
For orientation: Kd means the equilibrium constant for the complex coming apart. Turning to B1, the dissociation constant (Kd) in data set [1] came to 2.8 µM.

B2: tandem repeat SinRBM duplex (dsDNA)
DNA 1: GTCGTTCTCTCGTTCTCTATAA
DNA 2: TTATAGAGAACGAGAGAACGAC
Regarding B2, the Kd in data set [1] amounted to 3.7 µM.

B3: SinR(74–111) (domain or fragment, B. subtilis, UniProt P06533 74-111, looked up)
chain: LDSEWEKLVRDAMTSGVSKKQFREFLDYQKWRKSQKEE
notes: SinR, Bacillus subtilis, C-terminal domain, residues 74–111; A selenomethionine form was also crystallised; also called C-terminal domain of SinR; not shown: His6, N-terminal, cleaved
In general, stoichiometry N refers to a count of units in the complex or per binding partner. Turning to B3, in data set [2], the “stoichiometry N” value was 4.

B4: SinI (natural protein, B. subtilis, UniProt P23308 1-57, looked up)
chain: MKNAKQEHFELDQEWVELMVEAKEANISPEEIRKYLLLNKKSAHPGPAARSHTVNPF
notes: Cloned into the same modified pET28 vector and cleaved as described for SinR, so a residual N-terminal Gly-Pro-Ala probably remains (surmised); Dimer by SEC-MALLS
Take B4: the figures for the “stoichiometry N” value in data set [3] and in data set [2] were 1 and 2, respectively.

Turning to B5, the “stoichiometry N” value in data set [2] stood at 4.

The values are drawn from article PMC3163267, “Structure and Organisation of SinR, the Master Regulator of Biofilm Formation in Bacillus subtilis” (Journal of Molecular Biology, 2011).
